According to publication PMC6553764:

Target: FSFG6 (a segment of Nsp1FG that contains six repeats of the FxFG-type region) (S. cerevisiae)
Assay: SPR; XPR36 (BioRad), GLC chip; FG construct conjugated by its C-terminal cysteine to maleimide surface, quenched with beta-mercaptoethanol; analyte in TBT-PVP at 100 μl/min, association 15-120 s, dissociation 10 min, 25°C

fastest association rate estimated from the kinetic model fits: 3e+06 M⁻¹ s⁻¹
Substance: Kap95 (without the GST domain) (from UniProt Q06142 1-861) (natural protein)
